Laboratory results as given in article PMC3196243.
Read-outs that look alike come from different tables or passages of the source.

Key:
[1] = target: p53 362-393 (Homo sapiens) (UniProt P04637); conditions: cited from earlier work
[2] = target: Myelin-associated glycoprotein (Homo sapiens) (UniProt P20916); conditions: cited from earlier work
SIP (Homo sapiens) = SIP (Homo sapiens) (UniProt Q9HB71); conditions: cited from earlier work
[3] = target: TRTK-12 TRTK-12 (Homo sapiens) (UniProt P52907); conditions: cited from earlier work
S100B [4] = target: S100B (UniProt P04271); test: NMR titration
Chain of S100B (UniProt P04271) (P04271 2-92): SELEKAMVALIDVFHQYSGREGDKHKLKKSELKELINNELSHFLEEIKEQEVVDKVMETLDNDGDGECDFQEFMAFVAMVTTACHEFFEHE

S100B [5] = target: S100B (UniProt P04271); test: NMR titration; remark: listed apart in the source
[6] = target: RAGE 129-336 (Homo sapiens) (UniProt Q15109); conditions: cited from earlier work
Chain of RAGE 129-336 (Homo sapiens) (Q15109 129-336): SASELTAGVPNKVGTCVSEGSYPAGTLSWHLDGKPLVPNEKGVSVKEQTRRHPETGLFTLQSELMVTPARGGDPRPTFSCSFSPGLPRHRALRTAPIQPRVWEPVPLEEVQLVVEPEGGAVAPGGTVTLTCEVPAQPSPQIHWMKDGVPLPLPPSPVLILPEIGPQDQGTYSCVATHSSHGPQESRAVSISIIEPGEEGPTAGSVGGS

Chain of S100B (from UniProt P04271) (P04271 2-92): as the sequence (P04271 2-92) above
Chain of S100A2 (P29034 whole entry): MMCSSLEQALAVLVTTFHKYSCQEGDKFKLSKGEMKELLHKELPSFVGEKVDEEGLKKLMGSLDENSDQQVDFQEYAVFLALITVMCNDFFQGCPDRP
Chain of SIP (Homo sapiens) (Q9HB71 2-228): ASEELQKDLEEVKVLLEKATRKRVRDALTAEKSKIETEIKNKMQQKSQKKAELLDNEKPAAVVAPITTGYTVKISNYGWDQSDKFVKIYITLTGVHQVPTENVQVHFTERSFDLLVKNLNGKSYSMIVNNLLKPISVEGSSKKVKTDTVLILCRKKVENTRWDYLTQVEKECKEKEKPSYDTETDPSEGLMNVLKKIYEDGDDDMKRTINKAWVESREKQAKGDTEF
Chain of p53 362-393 (Homo sapiens) (P04637 362-393): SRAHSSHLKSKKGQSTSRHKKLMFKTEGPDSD
Chain of S100A12 (P80511 2-92): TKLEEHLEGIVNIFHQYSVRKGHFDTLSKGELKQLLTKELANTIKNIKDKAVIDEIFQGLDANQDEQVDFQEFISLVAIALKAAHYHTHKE
Chain of Myelin-associated glycoprotein (Homo sapiens) (P20916 20-626): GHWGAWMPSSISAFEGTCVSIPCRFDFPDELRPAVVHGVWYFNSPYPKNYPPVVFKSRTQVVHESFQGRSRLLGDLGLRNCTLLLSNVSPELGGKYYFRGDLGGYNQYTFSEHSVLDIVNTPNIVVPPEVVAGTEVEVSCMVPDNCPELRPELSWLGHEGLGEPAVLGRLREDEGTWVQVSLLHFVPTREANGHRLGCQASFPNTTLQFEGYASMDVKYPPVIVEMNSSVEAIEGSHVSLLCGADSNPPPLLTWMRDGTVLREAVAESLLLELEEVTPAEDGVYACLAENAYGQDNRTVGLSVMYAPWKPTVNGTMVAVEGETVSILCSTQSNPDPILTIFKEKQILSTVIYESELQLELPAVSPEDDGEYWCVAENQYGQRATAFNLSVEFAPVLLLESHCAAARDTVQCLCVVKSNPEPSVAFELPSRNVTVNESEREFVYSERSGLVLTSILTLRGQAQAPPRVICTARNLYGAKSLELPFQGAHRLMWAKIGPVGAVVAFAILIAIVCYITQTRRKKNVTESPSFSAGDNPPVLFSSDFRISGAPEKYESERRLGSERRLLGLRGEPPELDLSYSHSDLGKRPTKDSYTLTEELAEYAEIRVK

S100A2 (from UniProt P29034)
Kd [1]: 106 µM

S100B (from UniProt P04271)
Kd [2]: 7 µM | Kd (SIP (Homo sapiens)): 5 µM | Kd [3]: 0.3 µM

IC3-M28 (from UniProt P61169-2 288-315) (peptide)
Kd (S100B [4]): 148 µM | Kd (S100B [5]): 149 µM

IC3-C30 (from UniProt P61169-2 316-345) (peptide)
Kd (S100B [5]): 98 µM

S100A12 (from UniProt P80511)
Kd [6]: 140 µM
